This is an account of results in publication PMC5758568, “Cryo EM structure of intact rotary H^+-ATPase/synthase from Thermus thermophilus” (Nature Communications, 2018).

The chains are these.
B2: D-subunit of the V/A-ATPase from Thermus thermophilus (natural protein, UniProt O87880 1-223, looked up)
chain: MSQVSPTRMNLLQRRGQLRLAQKGVDLLKKKRDALVAEFFGLVREAMEARKALDQAAKEAYAALLLAQAFDGPEVVAGAALGVPPLEGVEAEVENVWGSKVPRLKATFPDGALLSPVGTPAYTLEASRAFRRYAEALIRVANTETRLKKIGEEIKKTTRRVNALEQVVIPGIRAQIRFIQQVLEQREREDTFRLKRIKGKIEAREAEEEGGRPNPQVEIGAGL
notes: V/A-type ATPase D-subunit (central rotor shaft), Thermus thermophilus; native subunit in the isolated whole enzyme; One copy in the enzyme (D1F1d1c12 rotor); also called subunit D; V1-DF (with F)

Assay in all cases: cryo-EM structure; single particle cryo-EM of the whole V/A-ATPase in TE buffer (20 mM Tris-HCl pH 8.0, 0.1 mM EDTA) with 0.003% LMNG and 100 mM NaCl, no nucleotide added; three rotational states (5.0, 6.7, 7.5 Å), focused V1EGd map of state1 4.7 Å; crystal structures and homology models fitted by MDFF
The target of experiment [1] is c-subunit (subunit L) of the V/A-ATPase from Thermus thermophilus, with His3 tag on the C-terminus (Thermus thermophilus).
Experiment [2] deals with T1, B-subunit of the V/A-ATPase from Thermus thermophilus (Thermus thermophilus, UniProt Q56404 1-478).
T1 construct: V/A-type ATPase B-subunit (V1 part), Thermus thermophilus; native subunit in the isolated whole enzyme; Three copies in the enzyme (A3B3); also called subunit B
T1 sequence (looked up): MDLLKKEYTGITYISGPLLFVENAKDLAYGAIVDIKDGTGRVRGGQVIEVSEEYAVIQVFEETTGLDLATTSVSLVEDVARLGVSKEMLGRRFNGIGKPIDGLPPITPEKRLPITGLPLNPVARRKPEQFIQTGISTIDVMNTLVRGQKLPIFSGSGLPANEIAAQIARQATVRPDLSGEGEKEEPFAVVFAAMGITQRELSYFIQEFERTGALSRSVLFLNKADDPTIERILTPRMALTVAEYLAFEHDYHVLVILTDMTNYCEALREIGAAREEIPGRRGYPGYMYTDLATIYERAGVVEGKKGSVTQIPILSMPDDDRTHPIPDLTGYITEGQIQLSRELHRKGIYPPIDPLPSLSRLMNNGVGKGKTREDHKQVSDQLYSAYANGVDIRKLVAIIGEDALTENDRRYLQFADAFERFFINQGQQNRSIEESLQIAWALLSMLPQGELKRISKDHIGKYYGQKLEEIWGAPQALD
Conditions: both partners purified.

Experiment [3] addresses T2, d-subunit (subunit C) of the V/A-ATPase from Thermus thermophilus (Thermus thermophilus, UniProt P74902 1-323).
T2 construct: native subunit in the isolated whole enzyme; One copy in the enzyme; also called Vo-d
T2 sequence: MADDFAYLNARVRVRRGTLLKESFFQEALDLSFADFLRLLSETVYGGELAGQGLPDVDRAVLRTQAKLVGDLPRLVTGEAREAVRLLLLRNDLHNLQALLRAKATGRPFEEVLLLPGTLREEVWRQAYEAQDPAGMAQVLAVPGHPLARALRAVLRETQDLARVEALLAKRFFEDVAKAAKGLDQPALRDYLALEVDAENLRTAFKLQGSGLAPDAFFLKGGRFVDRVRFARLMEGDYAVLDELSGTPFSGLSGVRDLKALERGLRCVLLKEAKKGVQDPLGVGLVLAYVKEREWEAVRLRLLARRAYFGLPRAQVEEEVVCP
The following applies: both partners purified.

The target in experiment [4] is B2. Conditions: both partners purified.

In experiment [1], “c-subunit (subunit L) of the V/A-ATPase from Thermus thermophilus, with His3 tag on the C-terminus (natural protein)” registered a stoichiometry N of 12.

B1: E-subunit of the V/A-ATPase from Thermus thermophilus (natural protein)
chain: MSKLEAILSQEVEAEIQALLQEAEAKAEAVKREAEEKAKALLQARERALEAQYRAALRRAESAGELLVATARTQARGEVLEEVRRRVREALEALPQKPEWPEVVRKLALEALEALPGAKALVANPEDLPHLEALARERGVELQAEPALRLGVRAVGAEGKTQVENSLLARLDRAWDALSSKVAQALWG
notes: V/A-type ATPase E-subunit (peripheral stalk), Thermus thermophilus; native subunit in the isolated whole enzyme; Two copies in the enzyme (two EG stalks); also called subunit E; EG stalk (with G)
Regarding B1, in experiment [2], the binding result was “binds”.

For the molecule B2, in experiment [3], the binding result is “binds”.

B3: F-subunit of the V/A-ATPase from Thermus thermophilus (natural protein)
chain: MAVIADPETAQGFRLAGLEGYGASSAEEAQSLLETLVERGGYALVAVDEALLPDPERAVERLMRGRDLPVLLPIAGLKEAFQGHDVEGYMRELVRKTIGFDIKL
notes: V/A-type ATPase F-subunit (central rotor), Thermus thermophilus; native subunit in the isolated whole enzyme; One copy in the enzyme; also called subunit F; V1-DF (with D)
For B3, the binding result in experiment [4] is given as “binds”.

As usually defined, the stoichiometry N is a count of units in the complex or per binding partner.
